The nanobody polyreactivity screen of Harvey et al. (2022)

Experiment: yeast display, Sf9 membrane polyspecificity reagent, FACS + sequencing; frameworks hold sequencing errors
In short: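 Polyreactivity labels are assigned by the sorting gate from which each nanobody was recovered. The gates were low and high (top ~1%), set on anti-HA fluorescence for expression and streptavidin fluorescence for reagent binding. Before sorting, galactose-induced (36–48 hours) yeast display cells were stained for 1 hour at 4 °C with 10% biotinylated, detergent-solubilized Sf9 membrane reagent.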

Which “polyreactivity (PSR sort gate)” value does the source give for “QVQLVESGGGLVQAGGSLRLSCAASGRIFSTYVMGWYRQAPGKERELVAAIRNRGGSTYYADSVKGRFTISRDNAKNTVYLQMNSLKPEDTAVYYCAAEYSYRYRVSMDYWGQGTQVTVSS” here?
The value was “high polyreactivity”.

Which “polyreactivity (PSR sort gate)” value does the source give for “QVQLVESGGGLVQAGGSLRLSCAASGRIFSVNAMGWYRQAPGKERELVASISWSGGSTYYADSVKGRFTISRDNAKNTVYLQMNSLKPEDTAVYYCNARIESYWLDFDYWGQGTQVTVSS” here?
The value was “low polyreactivity”.

For “QVQLVESGGGLVQAGGSLRLSCAASGRIFSVNAMVWYRPAPGKERELVAAITGSGTITYYADSVKGRFTISRDNAKNTVYLQMSSLKPEDTAVYYCAARPVLRYYAGYYYWGQGTQVTVSS”, which “polyreactivity (PSR sort gate)” value is on record?
The value was “high polyreactivity”.

Which “polyreactivity (PSR sort gate)” value does the source give for “QVQLVESGGGLVQAGGSLRLSCAASGRIFSVYTMGWYRQAPGKEREFVASITGSAGSTYYADSVKGRFTISRDNAKNTVYLQMNSLKPEDTAVYYCAKRITAWYTYYGYWGQGTQVTVSS” here?
Its value is “low polyreactivity”.

With “QVQLVESGGGLVQAGGSLRLSCAASGRIFSVYTMGWYRQAPGKERELVATISSGGRTNYADSVKGRFTISRDNAKNTVYLQMNSLKPEDTAVYYCAAVPYGFVGYDDYWGQGTQVTVSS” as the sequence, how does the “polyreactivity (PSR sort gate)” value read?
Its value is “low polyreactivity”.

With “QVQLVESGGGLVQAGGSLRLSCAASGRIFSVYTMRWYRQAPGKERELVATISSGGRTNYADSVKGRFTISRDNAKNTVYLQMNSLKPEDTAVYYCAADWVYPPGLKDSVHFGEYDYWGQGTQVTVSS” as the sequence, how does the “polyreactivity (PSR sort gate)” value read?
Its value is “low polyreactivity”.

With “QVQLVESGGGLVQAGGSLRLSCAASGRIFSWNAMGWYRQAPGKERELVAAITIGGGTYYADSVKGRFTISRDNAKNTVYLQMNSLKPEDTAVYYCNAYRRKLWYPTGMYWGQGTQVTVSS” as the sequence, how does the “polyreactivity (PSR sort gate)” value read?
Its value is “high polyreactivity”.

For “QVQLVESGGGLVQAGGSLRLSCAASGRIFSWNAMGWYRQAPGKERELVARITWNGGRTYYADSVKGRFTISRDNAKNTVYLQMNSLKPEDTAVYYCNAERFDLTYNYWGQGTQVTVSS”, which “polyreactivity (PSR sort gate)” value is on record?
The value was “high polyreactivity”.

For “QVQLVESGGGLVQAGGSLRLSCAASGRIFSWNTMGWYRQAPGKERELVAAITQSGSTYYADSVKGRFTISRDNAKNTVYLQMNSLKPEDTAVYYCAAVVGRRLYPRYDYWGQGTQVTVSS”, which “polyreactivity (PSR sort gate)” value is on record?
The value was “high polyreactivity”.

For “QVQLVESGGGLVQAGGSLRLSCAASGRIFSYKAMGWYRQAPGKERELVAAISFSTTSTYYADSVKGRFTISRDNAKNTVYLQMYSLKPEDTAVYYCNTPGLPIDSEYDYWGQGTQVTVSS”, which “polyreactivity (PSR sort gate)” value is on record?
The value was “low polyreactivity”.

For “QVQLVESGGGLVQAGGSLRLSCAASGRIFSYNAMGWYRQAPGKERELDAAISWSTGSTFYADSVKGRFTISRDNAKNTVYLQMNSLKPEDTAVYYCAREYYYRRGFFLRGYWGQGTQVTVSS”, which “polyreactivity (PSR sort gate)” value is on record?
The value was “high polyreactivity”.

With “QVQLVESGGGLVQAGGSLRLSCAASGRIFSYNAMGWYRQAPGKERELVAAISSDGSTYYADSVKGRFTISRDNAKNTVYLQMNRLKPEDTAVYYCAAYPRVNGNIHSTGDYWGQGTQVTVSS” as the sequence, how does the “polyreactivity (PSR sort gate)” value read?
The value was “low polyreactivity”.

Which “polyreactivity (PSR sort gate)” value does the source give for “QVQLVESGGGLVQAGGSLRLSCAASGRIFSYNTMGWYRQAPGKERELVAAISGGGTTYYADSVKGRFTISRDNAKNTVYLQMNSLKPEDTAVYYCNAEYYGYSWRRTKYGYWGQGTQVTVSS” here?
Its value is “high polyreactivity”.

For “QVQLVESGGGLVQAGGSLRLSCAASGRIFSYYAMGWYRHAPWKERELVAAISRSGAKTYYADSVKGRFTISRDNAKNSVYLQMNSLKPEDTAVYYCNADTLRRRYNYWGQGTQVTVSS”, which “polyreactivity (PSR sort gate)” value is on record?
Its value is “high polyreactivity”.

With “QVQLVESGGGLVQAGGSLRLSCAASGRIFSYYAMGWYRQAPGKERELVAAISWSGGRTYYADSVKGRFTISRDNAKNTVYLQMNSLKPEDTAVYYCAARLKLYLPRSAYDYWGQGTQVTVSS” as the sequence, how does the “polyreactivity (PSR sort gate)” value read?
The value was “high polyreactivity”.

Which “polyreactivity (PSR sort gate)” value does the source give for “QVQLVESGGGLVQAGGSLRLSCAASGRIFSYYAMGWYRQAPGKERELVASITSGGSTYADSVKGRFTISRDNAKNTVYLQMNSLKPEDTAVYYCAKGYYWLSTYGDSRYGYWGQGTQVTVSS” here?
The value was “high polyreactivity”.

For “QVQLVESGGGLVQAGGSLRLSCAASGRIFSYYAMGWYRQAPGKERELVATINSGGSTNYADSVKGRFTISRDNAKNTVYLQMNSLKPVATAVYYCAASPVWWYDYWGQGTQVTVSS”, which “polyreactivity (PSR sort gate)” value is on record?
The value was “low polyreactivity”.

For “QVQLVESGGGLVQAGGSLRLSCAASGRIFSYYAMGWYRQAPGKERELVATISGSGGSTYYADSVKGRFTNSRDNAKNNVYLQMNSLKPEDTAVYYCAARRSGRTRYYWGQGTQVTVSS”, which “polyreactivity (PSR sort gate)” value is on record?
The value was “high polyreactivity”.

Which “polyreactivity (PSR sort gate)” value does the source give for “QVQLVESGGGLVQAGGSLRLSCAASGRIFSYYAMGWYRQAPGTERELVAAISWSGSRTNYADSVKGRFTISRDNAKNTVYLQMKSLKPEDTAVYYCAAEDWSTQGSATVQYDYWGQGTEVTVSS” here?
Its value is “high polyreactivity”.

For “QVQLVESGGGLVQAGGSLRLSCAASGRIFSYYDMGWYRQAPGKERELVARISYSGDSTYYADSVKGRFTISRDNAKNTVYLQMNSLKPEDTAVYYCADEVDSGYSEYYWGQGTQVTVSS”, which “polyreactivity (PSR sort gate)” value is on record?
The value was “low polyreactivity”.

Which “polyreactivity (PSR sort gate)” value does the source give for “QVQLVESGGGLVQAGGSLRLSCAASGRIFTAYYAMGWYRQEPGKESELVASISSSGTSTYADSVKGRFTISRDNAKNSVYLQMISLKPEDTAVYYCATRKLRTRRYDYGYWGQGTQVTVSS” here?
The value was “low polyreactivity”.

For “QVQLVESGGGLVQAGGSLRLSCAASGRIFTFYAMGWYRQAPAKERELVAAISSGGSTYYADSVKGRFTISRDNAKNTVYLQMNSLKPEDTAVYYCAAEPVWYADYDYWGQGTQVTVSS”, which “polyreactivity (PSR sort gate)” value is on record?
The value was “low polyreactivity”.

With “QVQLVESGGGLVQAGGSLRLSCAASGRIFTGYAMGWYRQAPGKERELVAAISSRGGSTYYADSVKGRFTISRDNAKNTVYLQMNSLKPEDTAVYYCNAYQWRHRYTMYYWGQGTQVTVSS” as the sequence, how does the “polyreactivity (PSR sort gate)” value read?
The value was “high polyreactivity”.

With “QVQLVESGGGLVQAGGSLRLSCAASGRIFTHNAMGWYRQAPGKERELVAAISYSGVSTYYADSVKGRFTISRDNAKNTVYLHMNSLKPEDTAVYYCNALIQSWRARIRRYYWGQGTQVTVSS” as the sequence, how does the “polyreactivity (PSR sort gate)” value read?
Its value is “low polyreactivity”.

For “QVQLVESGGGLVQAGGSLRLSCAASGRIFTHNAMGWYRQAPGKERELVAAITSGGRTTYADSVKGRFTISRDNAKNTVYLQMNSLKPEDTAVYYCNADTGLGSLDFYNRDYWGHGTQVTVSS”, which “polyreactivity (PSR sort gate)” value is on record?
Its value is “low polyreactivity”.

For “QVQLVESGGGLVQAGGSLRLSCAASGRIFTHNVMGWYRQAPGKERELVAAISGGGGSTYYADSVKGRFTISRDNAKNTVYLQMNSLKPEDTAVYYWAAVGFGRQGQEDYWGQGTHVTVSS”, which “polyreactivity (PSR sort gate)” value is on record?
The value was “low polyreactivity”.

For “QVQLVESGGGLVQAGGSLRLSCAASGRIFTIYAMGWYRQAPGKERELVAAISDRGTRTYYADSVKGRFTISRDNAKNTVYLQMNSLKPEDSEVYYCATDALYTYGYDYWGQGTQVTVSS”, which “polyreactivity (PSR sort gate)” value is on record?
Its value is “low polyreactivity”.

With “QVQLVESGGGLVQAGGSLRLSCAASGRIFTIYAMGWYRQAPGKERELVATISRRGGSTYYADSVKGRFTISRDNAKNTVYLQMNSLKPEDTAVYYCAADSVITWWAYDYWGQGTQVTVSS” as the sequence, how does the “polyreactivity (PSR sort gate)” value read?
Its value is “high polyreactivity”.

With “QVQLVESGGGLVQAGGSLRLSCAASGRIFTKYAMGWYRQAPGKERELVAAISGSGGNTYYADSVKGRFTISRDNAKNTVYLQMNSLKPEDTAVYYCAVESWRYVGFGYWGQGSQVTVSS” as the sequence, how does the “polyreactivity (PSR sort gate)” value read?
The value was “high polyreactivity”.

With “QVQLVESGGGLVQAGGSLRLSCAASGRIFTKYAMGWYRQAPGKERELVASISSGGSTYYADSVKGRFTISRDNAKNTVYLQMNSLKPEDTAVYYCARSTGTSRRMDDWGQGTQVTVSS” as the sequence, how does the “polyreactivity (PSR sort gate)” value read?
The value was “high polyreactivity”.

Which “polyreactivity (PSR sort gate)” value does the source give for “QVQLVESGGGLVQAGGSLRLSCAASGRIFTNAMGWYRQAPGKERELVAAISGGSNTYYADSVKGRFTISRDNAKNTVYLQMNSLKPEDTAVYYCNTDDLWWDGGYDYWGQGTQVTVSS” here?
Its value is “low polyreactivity”.

For “QVQLVESGGGLVQAGGSLRLSCAASGRIFTPNAMGWSRQAPGKERELVAAITWSGDNTYADSVKGRFTISRDNAKNTVYLQMNSLKPEDTAVYYCAAAYGYGHKKYGYWGQGTQVTVSS”, which “polyreactivity (PSR sort gate)” value is on record?
The value was “low polyreactivity”.

With “QVQLVESGGGLVQAGGSLRLSCAASGRIFTPYPMGWYRQAPGKERELVAVIRDGSTYYADSVKGRFTISRDNAKNSVYLQMNSLKPEDSAVYYCRYDIWVWWSGAYDYWGQGTQVTVSS” as the sequence, how does the “polyreactivity (PSR sort gate)” value read?
The value was “low polyreactivity”.

Which “polyreactivity (PSR sort gate)” value does the source give for “QVQLVESGGGLVQAGGSLRLSCAASGRIFTPYVLGWYRQAPGKERELVARISWTGSSTYYADSVKGRFTISRDNAKNTVYLQMNSLKPEDTAVYYCAKRLTRFYTRLEYWGQGTQVTVSS” here?
The value was “low polyreactivity”.

With “QVQLVESGGGLVQAGGSLRLSCAASGRIFTPYVMGWYRQAPGKERELVARISWTGSSTYYADSVKGRFTISRDNAKNTVYLQMNSLKPEDTAVYYCAKRLTRFYTRLEYWGQGTQVTVSS” as the sequence, how does the “polyreactivity (PSR sort gate)” value read?
The value was “low polyreactivity”.

For “QVQLVESGGGLVQAGGSLRLSCAASGRIFTQYAMGWYRQAPGKERELVAAINASDGSTYADSVKGRFTISRDNAKNTVYLQMNSLKPEDSAVYFCYVTGGPYDFTRWSEFDHWGQGTQVTVSS”, which “polyreactivity (PSR sort gate)” value is on record?
Its value is “low polyreactivity”.

With “QVQLVESGGGLVQAGGSLRLSCAASGRIFTRNAMGWYRQAPGKERELVAAIRWSGDSTYYADSVKGRFTISRDNAKNTVYLQMNSLKPEDTAVYYCAAYRQRSHRVGTKGHRVGYWGQVTQVTVSS” as the sequence, how does the “polyreactivity (PSR sort gate)” value read?
The value was “high polyreactivity”.

For “QVQLVESGGGLVQAGGSLRLSCAASGRIFTRNAMGWYRQAPGKERQLVAAISHSGGSTYADSVKGRFTISRDNAKNTVYLQMNSLKPEDTAVYYCAADSPYGYYEGDYCGQGTQVTVSS”, which “polyreactivity (PSR sort gate)” value is on record?
The value was “low polyreactivity”.

With “QVQLVESGGGLVQAGGSLRLSCAASGRIFTRSAMGWYRQAPGKERELVAVITRSGGSTYYADSVKGRFTISRDNAKKTVYLQMNSLKPEDTAVYYCAAKYYGEMYYWGQGTQVTVSS” as the sequence, how does the “polyreactivity (PSR sort gate)” value read?
Its value is “low polyreactivity”.

For “QVQLVESGGGLVQAGGSLRLSCAASGRIFTRYAIGWYRQAPGKERELVAAITYNGGSTYYADSVKGRFTISRDNAKNTVYLQMNSLKPEDTAVYDCNAVYLSWFGLFAGFDYWGQGTQVTVSS”, which “polyreactivity (PSR sort gate)” value is on record?
Its value is “high polyreactivity”.

For “QVQLVESGGGLVQAGGSLRLSCAASGRIFTRYAMGWYRQAPGKERELVAAINYRGSSTYYADSVKGRFTISRDNAKKTVYLQMNSLTPEDTAVYYCNTYGQTDTYWRYYYWGQGTQVTVSS”, which “polyreactivity (PSR sort gate)” value is on record?
The value was “high polyreactivity”.

With “QVQLVESGGGLVQAGGSLRLSCAASGRIFTRYAMGWYRQAPGKERELVDGITSRGGSTYYADSVKGRYTISRDNAKNTVYLQMNSLKPEDTAVYYCNKRYTGENDYWGQGTQVTVSS” as the sequence, how does the “polyreactivity (PSR sort gate)” value read?
The value was “high polyreactivity”.

For “QVQLVESGGGLVQAGGSLRLSCAASGRIFTSNAMGWYRQAPGKEREFVAAITKRGGRTYYADSVKGRFTISRDNAKNTVYLQMNSLKPEDTAVYYCAAGATGTSYYGGDYWGQGTQVTVSS”, which “polyreactivity (PSR sort gate)” value is on record?
The value was “high polyreactivity”.
